Laboratory results as given in patent US12365738B2, “Method of treating an interleukin-11-associated or -mediated fibrotic disease or condition by administering an anti-interleukin-11 receptor subunit alpha (IL-11RA) antibody” (Lassen Therapeutics, Inc., priority 2021, dated 2025).

Columns and labels:
hIL-11Rα = target: T1, hIL-11Rα (Homo sapiens, UniProt Q14626); test: Kinetic binding analysis by biolayer interferometry (protein G biosensors, Octet RED96e)
T1 sequence (Q14626 23-422): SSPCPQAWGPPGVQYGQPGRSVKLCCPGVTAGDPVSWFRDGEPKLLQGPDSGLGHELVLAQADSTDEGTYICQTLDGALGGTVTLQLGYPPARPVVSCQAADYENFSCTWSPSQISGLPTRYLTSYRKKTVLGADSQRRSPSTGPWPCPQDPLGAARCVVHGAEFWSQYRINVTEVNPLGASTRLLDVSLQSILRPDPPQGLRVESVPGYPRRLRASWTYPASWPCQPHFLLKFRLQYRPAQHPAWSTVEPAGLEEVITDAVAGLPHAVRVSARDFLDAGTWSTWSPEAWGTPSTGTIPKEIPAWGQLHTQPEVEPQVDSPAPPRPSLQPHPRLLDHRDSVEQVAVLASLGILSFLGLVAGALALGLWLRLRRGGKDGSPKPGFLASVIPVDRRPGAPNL
Method: Association was carried out in the presence of a 2-fold dilution series of hIL-11Rα and was allowed to proceed for 120 seconds; dissociation was measured for 300 to 1200 seconds.

[1] = tested on: IL-11 signaling (STAT3 Reporter (Luciferase)-HEK293 cell line); test: Cell-based STAT3 reporter (luciferase) HEK293 assay for inhibiting IL-11 signaling; parameters: species or system human
Method: Further testing of the lead mAbs was carried out using a cell-based reporter assay. IL-11 is reported to signal through the STAT3 and ERK pathways. Therefore, a STAT3 reporter cell line in which firefly luciferase gene expression is driven by STAT3 response elements located upstream of a minimal TATA promoter was selected to analyze mAb functional activity. In these cells, IL-11 can activate the endogenous STAT3 allowing it to bind to the STAT3 response elements, inducing transcription of the luciferase reporter gene and resulting in readily detectable luciferase expression. Antibodies to IL-11R which block IL-11 signaling should inhibit expression of IL-11 driven luciferase in these cells.
The STAT3 Reporter (Luciferase)—HEK293 cell line (BPS Bioscience, catalog #79800-P) was grown, passaged, and assayed as per manufacturer's protocols. Cells were added at 25,000 cells per well in a 96-well microtiter dish and incubated at 37° C. for 30-45 min. in 5% CO2 humidified air. Anti-IL-11R mAbs were added as a 3-fold dilution series in duplicate columns or rows, and plates were returned to the incubator for an additional 1 h at 37° C. after which 40 ng/mL IL-11 was added to each well to initiate the signal transduction cascade and luciferase production. Plates were incubated for 18-24 hours at 37° C. and luciferase was detected using a One-Step Luciferase Assay System (BPS Bioscience, cat. no. 60690-1) as per manufacturer's instructions.

hIL-11R = target: T2, hIL-11R (Homo sapiens, UniProt Q14626); test: Alternate biolayer interferometry assay (AHC biosensors) ranking mAbs 16-32 against mAb5; format: binding; details: AHC biosensors
T2 sequence (Q14626 23-422): T1 sequence (Q14626 23-422)
From the text: A further series of antibodies were designed in which the residue at Kabat position 31 of the heavy chain was varied (mAbs 16-32). In this case an alternate biolayer interferometry assay was used to initially rank the antibodies compared to mAb5, the closest relative in sequence to mAbs 16-32. MAbs were loaded onto anti-human constant domain (AHC) biosensors (FortéBio) in 10×kinetics buffer consisting of PBS, 0.1% BSA, 0.02% polysorbate 20 (TWEEN™) for 120 s to achieve a spectral shift value of 0.8 to 1.2 nm. Association was carried out in the presence of 2-fold dilution series of hIL-11R and was allowed to proceed for 120 s. Dilution series started 10 nM. The dissociation in 10×kinetics buffer for 1200 s. Binding kinetic measurements were taken on an Octet RED96e instrument.

[2] = tested on: type VI collagen formation (PRO-C6) in fibrotic human PCLS; test: Fibrotic human precision-cut lung slice (PCLS) model, PRO-C6 ECM remodeling biomarker; format: cell-based
Method: Tissue slices were prepared from the subpleural and central region of the fibrotic lung from two human end-stage donors with pulmonary fibrosis (IPF and secondary fibrosis) (see, for example, Hess et al., Toxicol In Vitro. 32:347-61, 2016). For both donors, lung tissue samples from two different regional areas (subpleural and central) were used to generate tissue cores used for PCLS. Adjacent cores were used to achieve serial PCLS for the analysis of one treatment as compared to medium treated PCLS from the same cores. This enables the comparison of densely packed fibrotic areas with fibrotic foci with less affected areas. To ensure the fibrotic status, clinical/demographic information for each patient is provided.
Each treatment was tested with three replicates for each lung region and for each donor.
Preparation and incubation of precision-cut lung slices. Lung lobes were canuled and filled with 37° C. warm 2% low-melting agarose/medium solution. Filled lobes were cooled on ice to polymerise agarose. Tissue cores with a diameter of 8 mm were prepared and cut into approximately 300 μm thick slices using a microtome (Krumdieck tissue slicer, Alabama Research and Development, Muniford, AL, USA or Vibratome OTS-5000, Science Services GmbH, Munich) in Earle's Balanced Salts Solution (EBSS). Tissue slices were incubated in Dulbecco's modified Eagle's medium/nutrient mixture F-12 Ham (DMEM) with L-glutamine and 15 mM HEPES without phenol red. Tissue slices were transferred into petri dishes and washed with DMEM for 2 hours. Medium was changed four times every 30 minutes in order to remove cell debris.
Two PCLS per well were left over night in 500 μL DMEM in 24-well plates for a final washing step. Next day, PCLS were treated with experimental treatments or controls (see Table E5) in 250 μl DMEM/F-12 culture medium for 48 hours under normal cell culture conditions (37° C., 5% CO2). Medium contained 100 units/mL penicillin and 100 μg/mL streptomycin and was not supplemented with fetal calf serum. […]
Extracellular matrix remodeling evaluation. Biomarkers that reflect ECM remodeling were assessed in supernatant by Nordic Bioscience using the following competitive ELISA: PRO-C6 (C-terminal of type VI collagen C5 domain released as type VI collagen is incorporated into the matrix; measured on mesoscale platform [hsPRO-C6]): Reflects type VI collagen formation. […]
Statistics. […] Pooled data are presented as percentage of the “no treatment” control, calculated for individual regions and donors. Statistical significant differences were evaluated on pooled data by Kruskal-Wallis with Dunn's multiple comparisons test, comparing to the “no treatment” control. […]

ka (hIL-11Rα): 63700 M⁻¹ s⁻¹
kd (hIL-11Rα): <1e-07 s⁻¹
ka (hIL-11R): 490000 M⁻¹ s⁻¹
kd (hIL-11R): 2.5e-05 s⁻¹
B1: mAb5: anti-IL-11Rα antibody, human IgG4 (S228P), kappa; VH SEQ ID NO: 201, VL SEQ ID NO: 202 (antibody, V domains shown)
VH: EVQLLESGGGLVQPGGSLRLSCAASGFTFSWYSMTWVRQAPGKGLEWVSSIVPYGDLTQYADSVKGRFTISRDNSKNTLYLQMNSLRAEDTAVYYCAKGPGWGSFDLWGRGTLVTVSS
VL: DIQMTQSPSSLSASVGDRVTITCQASQDINNYLNWYQQKPGKAPKLLIYDASNLQTGVPSRFSGSGSGTDFTFTISSLQPEDIATYYCQQHESQSPTFGPGTKVDIK
modifications: IgG4 S228P kappa constant regions; mAb5 VH Chain; mAb5 VL Chain
potency at inhibiting IL-11 signaling relative to TS7 / 8E2 (in words) [1]: more potent at inhibiting IL-11 signaling than either of TS7 or 8E2
dose relation of PRO-C6 reduction ([2]; 0.3, 3.0, 30 μg/mL, 48 hours): reduced PRO-C6 in a dose-dependent manner
median levels of PRO-C6 compared to the no treatment (media) control ([2]; 48 hours, pooled data, all donors and regions, mAb5 0.3, 3.0, 30 μg/mL, nintedanib 1 μM, isotype control 30 μg/mL): decreased
effects on ECM remodeling relative to nintedanib ([2]; in several cases): better effects on ECM remodeling
